“Also recorded” adds a separate entry of the source.
Legend:
[1] = test system: patients with thrombocytopenia; test: Administration to patients with thrombocytopenia (summary of clinical test examples 1 and 2); assay type: in vivo, human; conditions: administration in the course of chemotherapy
Source text: A malignant tumor patient was subjected to chemotherapy (first chemotherapy), then merely observed for a period (control phase) and, after a second chemotherapy, administered with 8×10^6 units of a glycoprotein preparation comprising the prepared in Reference Example 1 as active ingredient by intravenous drip for 7 consecutive days (preparation administration phase). Blood granulocytes and platelets were counted at timed intervals. The minimum platelet count and the number of days required for the platelet level to regain a level of at least 10^5 /mm^3 in the control phase and in the preparation administration phase are comparatively shown in Table 4.
Ten malignant tumor patients were subjected to a first chemotherapy, then observed without any treatment for a period (control phase) and, after a second chemotherapy, administered with 8×10^6 units of a glycoprotein preparation comprising the CSF prepared in Reference Example 1 as active ingredient by intravenous drip for 7 consecutive days (preparation administration phase). Blood platelets were counted at timed intervals. The minimum platelet count and the number of days required for the platelet count to regain a level of at least 10^5 /mm^3 in the control phase and in the preparation administration phase are comparatively shown in Table 5.

mouse marrow cells = test: Colony stimulating activity: colony formation of mouse marrow cells on single-layer soft agar gel; assay type: cell-based
Method: (§1) The colony stimulating activity of the CSF according to the invention was determined by the method involving colony formation of mouse marrow cells on a single-layer soft agar gel. Thus, the CSF sample was admixed with 1 ml of McCoy's 5A medium (GIBCO) containing 0.3% agar, 20% fetal calf serum (FCS) and 1×10^5 mouse marrow cells. Incubation was carried out at 37° C. for 7 days under a stream of 7.5% CO2 -containing air. Thereafter, cell aggregates consisting of 50 or more cells were judged as colonies and counted. The colony stimulating activity was expressed in units. One unit was defined as the quantity of CSF required for the formation of one colony. The specific activity was expressed in terms of the number of colonies (units) formed per milligram of the CSF protein. […] The colonies formed were stained with hematoxylin-eosin for morphological classification.

[2] = Thermal stability: colony stimulating activity after heating; assay type: physicochemical; conditions: 1 μg/ml, dilute buffer pH 7.0, 60±0.5° C., 60 minutes
Method: The CSF was dissolved in a dilute buffer (pH 7.0) to a concentration of 1 μg/ml, and the solution was heated at 60±0.5° C. for 60 minutes and then assayed for colony stimulating activity (to be mentioned later herein).
as §1

[3] = Isoelectric point by polyacrylamide gel isoelectric focusing and sucrose density gradient isoelectric focusing; assay type: physicochemical
Source text: The isoelectric point (pI) as determined by the polyacrylamide gel isoelectric focusing and sucrose density gradient isoelectric focusing techniques is 3.1-3.7.

B1: CSF: human monocyte-macrophage colony stimulating factor, glycoprotein homodimer of two identical subunits (35,000-45,000 daltons each), purified from human urine (protein, UniProt P09603 33-554, looked up)
Macrophage colony-stimulating …: EEVSEYCSHMIGSGHLQSLQRLIDSQMETSCQITFEFVDQEQLKDPVCYLKKAFLLVQDIMEDTMRFRDNTPNAIAIVQLQELSLRLKSCFTKDYEEHDKACVRTFYETPLQLLEKVKNVFNETKNLLDKDWNIFSKNCNNSFAECSSQDVVTKPDCNCLYPKAIPSSDPASVSPHQPLAPSMAPVAGLTWEDSEGTEGSSLLPGEQPLHTVDPGSAKQRPPRSTCQSFEPPETPVVKDSTIGGSPQPRPSVGAFNPGMEDILDSAMGTNWVPEEASGEASEIPVPQGTELSPSRPGGGSMQTEPARPSNFLSASSPLPASAKGQQPADVTGTALPRVGPVRPTGQDWNHTPQKTDHPSALLRDPPEPGSPRISSLRPQGLSNPSTLSAQPQLSRSHSSGSVLPLGELEGRRSTRDRRSPAEPEGGPASEGAARPLPRFNSVPLTDTGHERQSEGSFSPQLQESVFHLLVPSVILVLLAVGGLLFYRWRRRSHQEPQRADSPLEQPEGSPLTQDDRQVELPV
modifications: urinary homodimer
notes: human monocyte-macrophage colony stimulating factor, glycoprotein homodimer of two identical subunits (35,000-45,000 daltons each), purified from human urine
restoration of a normal platelet level [1]: rapid restoration of a normal platelet level
specific activity (mouse marrow cells; Reference Example 2, CSF purified with antibody-bound carrier): 5.2×10^7 units/mg
specific activity (mouse marrow cells; Reference Example 2, CSF-containing solution before antibody-bound carrier treatment): 2 ×10^5 units/mg
monocyte-macrophage colonies among the colonies formed (mouse marrow cells; hematoxylin-eosin staining, morphological classification): at least 95%
specific activity (mouse marrow cells; purification step (1) DEAE-cellulose): 1.6 × 10^5 units/mg
specific activity (mouse marrow cells; purification step (2) Sephacryl S-300): 5.7 × 10^5 units/mg
specific activity (mouse marrow cells; purification step (3) Phenyl-Sepharose): 8.8 × 10^6 units/mg
specific activity (mouse marrow cells; purification step (4) TSKG-3,000 SW): 2.0 × 10^7 units/mg
specific activity (mouse marrow cells; purification step (5) Hi-Pore RP-304 (final)): 1.4 × 10^8 units/mg
specific activity (colony stimulating activity) (mouse marrow cells; purified CSF, mouse marrow cells, 7 days at 37° C., one unit = one colony): 1.4×10^8 units per milligram of protein
thermal stability (colony stimulating activity after heating) [2]: The biological activity is not lost; also recorded: Almost no activity decrease was observed
isoelectric point (pI) [3]: 3.1-3.7

From patent US5114710A, “M-CSF as a therapeutic agent for thrombocytopenia” (Green Cross Corporation, priority 1988, dated 1992)
